{
  "source": "the nanobody polyreactivity screen of Harvey et al. (2022)",
  "data": [
    {"experiment": "yeast display, Sf9 membrane polyspecificity reagent, FACS + sequencing; frameworks hold sequencing errors", "method_in_brief": "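After 36–48 hours of galactose induction, yeast (Saccharomyces cerevisiae BJ5465) displaying a synthetic nanobody library were stained at 4 °C for 1 hour with 10% biotinylated, detergent-solubilized Sf9 membrane reagent. Streptavidin microbeads enriched the stained cells before FACS sorting into low and high (top ~1%) gates on anti-HA and streptavidin fluorescence. Each clone's polyreactivity label reflects its gate of origin.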", "values": [
      {"sequence": "QVQLVDSGGGLVQAGGSLRLSCAASGFIFLNNAMGWYRQAPGKERELVAAITWSGGSTYYADSVKGRFTISRDNAKNTVYLQMNSLKPEDTAVYYCAADGWLYYGVGYWGQGTQVTVSS", "polyreactivity (PSR sort gate)": "low polyreactivity"},
      {"sequence": "QVQLVDSGGGLVQAGGSLRLSCAASGFIFLTYGMGWYRQAPGKERELVATITSVGSTNYADSVKGRFTISRDNAKNTVYLQMNSLKPEDTAVYYCAAVSTYHVEFDFWAEYGYWGQGTQVTVSS", "polyreactivity (PSR sort gate)": "low polyreactivity"},
      {"sequence": "QVQLVDSGGGLVQAGGSLRLSCAASGFIFPSYVMGWYRQAPGKERELVATISRTGGSTYYADSVKGRYTISRDNAKNTVYLQMNSLKPEYTAVYFCAAYRYSYLQLMDYWGQGTQVTVSS", "polyreactivity (PSR sort gate)": "high polyreactivity"},
      {"sequence": "QVQLVDSGGGLVQAGGSLRLSCAASGFIFRYYAMGWYRQAPGTERELVAAISRSGGSTYYADSVKGRFTISRDNAKNTVYLQMYSLKPEDTAVYYCNRGDVIGRQYDSAYGYWGQGTQVTVSS", "polyreactivity (PSR sort gate)": "high polyreactivity"},
      {"sequence": "QVQLVDSGGGLVQAGGSLRLSCAASGFSLSINAMGWYRQAPGKERELVDGISWSGGSTYYADSVKGRFTISRDNAKTTFYLQMNSLKTEDTAVYYCNADLFLFVYFGQYYWRTYNYWGQGTQVTVSS", "polyreactivity (PSR sort gate)": "low polyreactivity"},
      {"sequence": "QVQLVDSGGGLVQAGGSLRLSCAASGFTFTRYAMGWYRQAPGKERELVADITRGGSTNYADSVKARFTISRDNAKNTVYLQMNSLKPEDTAVYYCNAGAITNYDYCGQGTQVTVSS", "polyreactivity (PSR sort gate)": "high polyreactivity"},
      {"sequence": "QVQLVDSGGGLVQAGGSLRLSCAASGFTFYSYAMGWYRPAPGKERELFAAISKSGGRSYYADSVKGRFTISRDNAKNTVYLQMKSLKPEDTGVYYCNTYGAFRSLETYDYWGQGSQVTVSS", "polyreactivity (PSR sort gate)": "high polyreactivity"},
      {"sequence": "QVQLVDSGGGLVQAGGSLRLSCAASGFTIYANAMGWYRQAPGKERELVAAITSSSGRTYYADSVKGRFTISRDNAKNTVYLQMNSLIPEETAVYYCAARWSPYDYWGQGTQVTVSS", "polyreactivity (PSR sort gate)": "low polyreactivity"},
      {"sequence": "QVQLVDSGGGLVQAGGSLRLSCAASGIIFVENAMGWYRQAPGKEREMVAAISWDGGSTYYADSVKGRFTISRDNAKNTVYLQMNSLKPEDTAVYYCAADLTISYSQEYYYWGQGTQVTVSS", "polyreactivity (PSR sort gate)": "low polyreactivity"},
      {"sequence": "QVQLVDSGGGLVQAGGSLRLSCAASGIISIVYAMGWYRQAPGKERELVAAISSGGSTYYADSVKGRFTISRDNAKNTVYLQMNRLKPEDTAVYYCATAYRYPPNAYFQRMDSWGQGTQVTVSS", "polyreactivity (PSR sort gate)": "high polyreactivity"},
      {"sequence": "QVQLVDSGGGLVQAGGSLRLSCAASGITFKRYAMGWYRQAPGKERELVAAITGIGGSTYYADSVKGRFTISSDNAKNTVYLQMNSLKPEDTAVYYCAARNNKKYDYWGQGTQVTVSS", "polyreactivity (PSR sort gate)": "high polyreactivity"},
      {"sequence": "QVQLVDSGGGLVQAGGSLRLSCAASGITFSWYAMGWYRQAPGKERELVAAITRNGGSTYYADSVKGRFTISRDNAKNTVYLLMNSLKPEDTAVYYCNARKKYENYYWGQGTQVTVSS", "polyreactivity (PSR sort gate)": "high polyreactivity"},
      {"sequence": "QVQLVDSGGGLVQAGGSLRLSCAASGITITEYAMGWYRQAPGKERELVAVISSVGTMYYADSVKGRFTISRDNAKNTVYFQMNSLKPEDTAVYYCAADYSDDGEYPYWSGSDYWGQGTQVTVSS", "polyreactivity (PSR sort gate)": "low polyreactivity"},
      {"sequence": "QVQLVDSGGGLVQAGGSLRLSCAASGLIFGYYDMGWYRQAPGKERELVAAITTGDSTYYADSVKGRFTISRDNAKNTVYLQMTCLKPEDSAVYYCSAYAFWYYESDYWGKGTQVTVSS", "polyreactivity (PSR sort gate)": "low polyreactivity"},
      {"sequence": "QVQLVDSGGGLVQAGGSLRLSCAASGLIFSQYAMGWYRQAPGKEREFVARISSSGGSTYYADSVKGRFTISRDNAKNTVYLQMNSLKPEDTAVYYCAAVGGRNIRVWFRNKYDSWGQGTQVTVSS", "polyreactivity (PSR sort gate)": "low polyreactivity"},
      {"sequence": "QVQLVDSGGGLVQAGGSLRLSCAASGLIFTYYAMGWYRQAPGKERELVAAINYSGGSTYYADSVKGRFTISRDNAKNSVYLQMNSLKPEDTAVYYCAARRVTQTEGPMGYWGQGTQVTVSS", "polyreactivity (PSR sort gate)": "low polyreactivity"},
      {"sequence": "QVQLVDSGGGLVQAGGSLRLSCAASGLTFIRYAMGWYRQAPGKERELVAAITRGGTRTYYADSVKGRFTISRDNAKNTVYLQMNSLKPEDTAVYYCAALSRYGRFDYWGQGTQVTVSS", "polyreactivity (PSR sort gate)": "high polyreactivity"},
      {"sequence": "QVQLVDSGGGLVQAGGSLRLSCAASGLTFSKYAMGWYRQAPGKERELVSAISRSGGSTYYADSVKGRFTISRDNAKNTVYLQMNSLKPEDTAVYYCAARRLVGAERPGYDYWGQGTQVTVSS", "polyreactivity (PSR sort gate)": "high polyreactivity"},
      {"sequence": "QVQLVDSGGGLVQAGGSLRLSCAASGNIFRANAMGWYRQAPGKERELVAAIRWRGVGTYYADSVKGRFTISRDYAKNTVYLQINSLKPEDTAVYYCAAYVKTGAYDYWGQGTLVTVSS", "polyreactivity (PSR sort gate)": "high polyreactivity"},
      {"sequence": "QVQLVDSGGGLVQAGGSLRLSCAASGNTFRIYAMAWYRQAPGKERELVAAISQSGGSTYYADSVKGRFTISRDNAKNTVYLQMNSLKPEDTAVYYCAATGARRKFYYWGQGTQVTVSS", "polyreactivity (PSR sort gate)": "high polyreactivity"},
      {"sequence": "QVQLVDSGGGLVQAGGSLRLSCAASGRIFHVYAMGWYRKAPGKERELLADITWSGGSTYYADSVKGRFTISRDNAKNTVYLQMNSLKPEDTAVYYCAAAYYGYARWRGPRKMDYWGQGTQVTVSS", "polyreactivity (PSR sort gate)": "high polyreactivity"},
      {"sequence": "QVQLVDSGGGLVQAGGSLRLSCAASGRIFRYYAMGWYRQAPGKERELVAGINQSGGSTYYADSVKGRFTISRDNAKNTVYLQMNSLKPEDTAVYYCAAKVSWPKYDYWGQGTQVTVSS", "polyreactivity (PSR sort gate)": "low polyreactivity"},
      {"sequence": "QVQLVDSGGGLVQAGGSLRLSCAASGRIFSRYAMGWYRQAPGKERELVASISYSGGSTNYADSVKGRFTISRDNAKNTFYLQMNSLKPEDTAVYYCAAGQYSYRRRYNYWGQGTQVTVSS", "polyreactivity (PSR sort gate)": "high polyreactivity"},
      {"sequence": "QVQLVDSGGGLVQAGGSLRLSCAASGRIFYRYAMGWYRQAPGKERELVATISRGGITNYADSVKGRFTISRDNAKNTVYLEMNSLKPEDTAVYYCNAVYGFRRLFEYEYDYWGQGTQVTVSS", "polyreactivity (PSR sort gate)": "high polyreactivity"},
      {"sequence": "QVQLVDSGGGLVQAGGSLRLSCAASGRNFNEYAMGWSRPAPGKERELVAAISSSGDSTYYADSVKGRFTISRDNAKNTVYLQMNSLKPEDTAVYYGAAQVVVWYPYVYFPGSDYWGQGTQVTVSS", "polyreactivity (PSR sort gate)": "low polyreactivity"},
      {"sequence": "QVQLVDSGGGLVQAGGSLRLSCAASGRTFGKNVMGWYREAPGKERELVAAISLSGGSTYYADSVKGRFTISRDNAKNTVYLQMNSLKPEDTAVYYCAAAAYGKPWGLDYWGQGTQVTVSS", "polyreactivity (PSR sort gate)": "low polyreactivity"},
      {"sequence": "QVQLVDSGGGLVQAGGSLRLSCAASGRTFKPYTMGWYRQAPGKERDLVAAISARGVSTYYADSVKGRFTISRDNAKNTGYLQMNSLKPEDTAVYYCNRVYFIGYRVFPPPMDYWGQGTQVTVSS", "polyreactivity (PSR sort gate)": "high polyreactivity"},
      {"sequence": "QVQLVDSGGGLVQAGGSLRLSCAASGRTFNLYAMGWYRQAPGKERELVATIDWTGGSTYYADSVKGRFTISRDNAKNTVYLQMNSLKPEDTAVYYCNADRFADYDYWGQGTQVTVSS", "polyreactivity (PSR sort gate)": "low polyreactivity"},
      {"sequence": "QVQLVDSGGGLVQAGGSLRLSCAASGRTFRYYAMGSYRQAPGKERELVAAISGRGGSTYYADSVKGRFTISRDNAKNTVYLLMNSLKPADTAVYYCAKRGYYRSRRYDYWGQGTQVTVSS", "polyreactivity (PSR sort gate)": "high polyreactivity"},
      {"sequence": "QVQLVDSGGGLVQAGGSLRLSCAASGRTFSANAMGWYRQAPGKERELVAGITSRGGGTYYADSVKGRFTISRDNAKNTVYLQMNSLKTEDTAVYYGAKASRYWSLYYWGQGTQVTVSS", "polyreactivity (PSR sort gate)": "high polyreactivity"},
      {"sequence": "QVQLVDSGGGLVQAGGSLRLSCAASGRTFYGNAMGWYRQAPGKARELVAAINRDGGTYYADSVKGRFTISRDNAKNTVYLQMNSLKPEDTAVYYCNAVKRGIRYGYWGQGTQVTVSS", "polyreactivity (PSR sort gate)": "high polyreactivity"},
      {"sequence": "QVQLVDSGGGLVQAGGSLRLSCAASGRTFYPYVMGWYRQPPGKERELVADISWSGGRTYYADSVKGRFTISRDNAKNTVYLQMNSLKPEDTAVYYCAAGYRRRYNYWGQGTQVTVSS", "polyreactivity (PSR sort gate)": "high polyreactivity"},
      {"sequence": "QVQLVDSGGGLVQAGGSLRLSCAASGRTIGINPMGWYRQAPGKERELVASITRSVGSTYDADSVKGRFTISRDNAKNTVYLQMNSLKPEDTEVYYCAAEYYTWSYYTKYYYWGQGTQVTVSS", "polyreactivity (PSR sort gate)": "high polyreactivity"},
      {"sequence": "QVQLVDSGGGLVQAGGSLRLSCAASGRTIPYYAMGWYRQAPGKERELVAAISSSGGRTYYADSVKGRFTISRDNAKNTVYLQMNSLKPEDTAVYYCNVDAWYPYQGFLVGYYYWGQGTQVTVSS", "polyreactivity (PSR sort gate)": "low polyreactivity"},
      {"sequence": "QVQLVDSGGGLVQAGGSLRLSCAASGRTIWRNAMGWYRQAPGKERELVAAIRWSGGRTYADSVKGRFTISRDKAKNTVYLQMNILKPEDTAVYYCNARGLSDWTLKLDYWGQGTQVTVSS", "polyreactivity (PSR sort gate)": "low polyreactivity"},
      {"sequence": "QVQLVDSGGGLVQAGGSLRLSCAASGRTIYNYDMGWYRQAPGKERELVARIFSGGSTNYADSVKGRFTISRDNAKNTVYLQMNSLKPEDTAVYYCNAVLESQFIGWKFFYWGQGTQVSVSS", "polyreactivity (PSR sort gate)": "high polyreactivity"},
      {"sequence": "QVQLVDSGGGLVQAGGSLRLSCAASGSIFGSYAMGWYRQAPGKERELVAGISGRGGSTYYADSVKGRFTISRDNAKNTVYLQMNSLKPEDTAVYYCAAGRRNGWLIPHYYWGQGTQVTVSS", "polyreactivity (PSR sort gate)": "high polyreactivity"},
      {"sequence": "QVQLVDSGGGLVQAGGSLRLSCAASGSIFGYYAMGWYRQAPGKERELVAAINSGSSTNYADSVKGRFTISRDNAKNTVYLQMNSLKPEDTAVYYCNKDPWYVFHPRGLFLFDYWGQGTQVTVSS", "polyreactivity (PSR sort gate)": "low polyreactivity"},
      {"sequence": "QVQLVDSGGGLVQAGGSLRLSCAASGSIFIINAKGWYRQSPGKERELVAAINSGGSTKYADSVKGRFTISRDNAKNTVYLQMNSLKPEDTAVYYCNAGSRPTAGGMDSWGQGTQVTVSS", "polyreactivity (PSR sort gate)": "low polyreactivity"},
      {"sequence": "QVQLVDSGGGLVQAGGSLRLSCAASGSIFQRYAMGWYRQAPGKERELVAGINWSGGRTYYADSVKGRFTISRDNAKNTVYLQMNSLKPEDTAVYYCAAARYTRYDYWGQGTQVTVSS", "polyreactivity (PSR sort gate)": "high polyreactivity"},
      {"sequence": "QVQLVDSGGGLVQAGGSLRLSCAASGSIFSYYAMGWYRPAPGTERELVAGLSWGGGRTYYADSVKGRFTISRDNAKNTVYLQMNSLKQEDTAVYYCAARLTGLDYWGQGTQVTVSS", "polyreactivity (PSR sort gate)": "high polyreactivity"},
      {"sequence": "QVQLVDSGGGLVQAGGSLRLSCAASGSIFTYNGKVWYRQAPGKEREFVAAITWTGGSTYADSVKGRFTISSDNSNNTVYLQMNSLKREDTAVYYCAAVRRISWYTPVNTRRYYYWGQGTQVTVSS", "polyreactivity (PSR sort gate)": "high polyreactivity"},
      {"sequence": "QVQLVDSGGGLVQAGGSLRLSCAASGSIIGLYAMGWYRQAPGKERELVAAITTTGGSTYYADSVKGRFTISRDNAKNTVYLQMNSLKPEDTAVYYCNADYVAYGPEYDYWGQGTQVTVSS", "polyreactivity (PSR sort gate)": "low polyreactivity"}
    ]}
  ]
}
